The record followed here is paper doi:10.1101/2025.02.03.636340.

The target of the test is HA-SNAP-mGluR3 (rat metabotropic glutamate receptor 3) (rat), P31422. Nature of the test: SiMPull with photobleaching step analysis. The settings on record: remark: other sources report otherwise.

B1: HA-SNAP-mGluR3 (rat metabotropic glutamate receptor 3), P31422 23-879 (receptor)
chain: LGDHNFMRREIKIEGDLVLGGLFPINEKGTGTEECGRINEDRGIQRLEAMLFAIDEINKDNYLLPGVKLGVHILDTCSRDTYALEQSLEFVRASLTKVDEAEYMCPDGSYAIQENIPLLIAGVIGGSYSSVSIQVANLLRLFQIPQISYASTSAKLSDKSRYDYFARTVPPDFYQAKAMAEILRFFNWTYVSTVASEGDYGETGIEAFEQEARLRNICIATAEKVGRSNIRKSYDSVIRELLQKPNARVVVLFMRSDDSRELIAAANRVNASFTWVASDGWGAQESIVKGSEHVAYGAITLELASHPVRQFDRYFQSLNPYNNHRNPWFRDFWEQKFQCSLQNKRNHRQVCDKHLAIDSSNYEQESKIMFVVNAVYAMAHALHKMQRTLCPNTTKLCDAMKILDGKKLYKEYLLKINFTAPFNPNKGADSIVKFDTFGDGMGRYNVFNLQQTGGKYSYLKVGHWAETLSLDVDSIHWSRNSVPTSQCSDPCAPNEMKNMQPGDVCCWICIPCEPYEYLVDEFTCMDCGPGQWPTADLSGCYNLPEDYIKWEDAWAIGPVTIACLGFLCTCIVITVFIKHNNTPLVKASGRELCYILLFGVSLSYCMTFFFIAKPSPVICALRRLGLGTSFAICYSALLTKTNCIARIFDGVKNGAQRPKFISPSSQVFICLGLILVQIVMVSVWLILETPGTRRYTLPEKRETVILKCNVKDSSMLISLTYDVVLVILCTVYAFKTRKCPENFNEAKFIGFTMYTTCIIWLAFLPIFYVTSSDYRVQTTTMCISVSLSGFVVLGCLFAPKVHIVLFQPQKNVVTHRLHLNRFSVSGTATTYSQSSASTYVPTVCNGREVLDSTTSSL
modifications: here or on the partner: SNAP tag labelled with SBG-JF646; SNAP tag labelled with SBG-JF646
B1 had a % of spots with 2 bleaching steps in the receptor channel of 50% and a stoichiometry N of 2.
